Laboratory results from patent publication US20250340631A1 (HARBOUR BIOMED SHANGHAI, published 2025).
Where a chain is given by its changes, count along the chain named. Values belong to the binder of their own block, whether it stands above or below them.

What was measured:
human CLDN18.1 = molecular target: T1, human CLDN18.1 (human, UniProt P56856 1-261); assay: FACS on HEK293/hCLDN18.1 cells
T1 construct: whole, on cells; also called hCLDN18.1
Experimental: (§1) Antibodies were assayed for binding affinity by FACS. Test cells include HEK293/hCLDN18.2, HEK293/hCLDN18.1, NUGC4_D8 and Jurkat cells. […] The cell density was adjusted to 10⁶ cells/mL, and 50 μL of the cell suspension was added to each well of a 96-well plate. Antibodies were diluted to different concentrations with FACS buffer, and 50 μL of the antibody dilution was added to each well of the 96-well plate. After 2 h of incubation at 4° C., the plate was washed twice with FACS buffer. […] After 1 h of incubation at 4° C., the plate was washed twice with FACS buffer. The cells were resuspended in fixative solution, and then the fluorescence of the cells was monitored using an FACS instrument (ACEA NovoCyte).

[1] = molecular target: T2, human CD3 on Jurkat cells (human, UniProt P07766 23-207); assay: FACS on Jurkat cells (CD3)
T2 construct: whole, on cells; on cells it stands in the whole CD3/TCR complex; also called CD3-expressing cells
Experimental: as §1

human CLDN18.2 [2] = molecular target: human CLDN18.2 (human); assay: cell-based or functional assay
human CLDN18.2 [3] = molecular target: T3, human CLDN18.2 (human); assay: FACS on NUGC4_D8 cells
T3 construct: the HEK293 line was made with a GenScript plasmid; also called hCLDN18.2

[4] = molecular target: CLDN18.2 of SNU620 cells (methionine to leucine at amino acid 149) (human, UniProt P56856-2 1-261); assay: cell-based or functional assay
[5] = molecular target: T2, human CD3 on Jurkat cells; assay: FACS on Jurkat cells
Experimental: as §1

human CLDN18.2 [6] = molecular target: T3, human CLDN18.2; assay: FACS on HEK293/hCLDN18.2 cells

T2 sequence (P07766 23-207): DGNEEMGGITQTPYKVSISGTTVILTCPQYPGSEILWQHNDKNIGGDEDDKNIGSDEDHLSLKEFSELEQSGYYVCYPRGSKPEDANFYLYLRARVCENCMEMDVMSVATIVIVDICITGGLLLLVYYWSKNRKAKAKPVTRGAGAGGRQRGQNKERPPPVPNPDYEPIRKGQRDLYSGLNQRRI
T1 sequence (P56856 whole entry): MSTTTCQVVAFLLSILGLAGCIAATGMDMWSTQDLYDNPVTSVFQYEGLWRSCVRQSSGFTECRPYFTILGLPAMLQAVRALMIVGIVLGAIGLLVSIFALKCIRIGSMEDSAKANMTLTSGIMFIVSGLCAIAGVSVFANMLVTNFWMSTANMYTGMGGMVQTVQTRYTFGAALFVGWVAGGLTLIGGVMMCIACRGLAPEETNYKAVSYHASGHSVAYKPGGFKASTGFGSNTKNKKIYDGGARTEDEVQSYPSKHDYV
CLDN18.2 of SNU620 cells (methionine to leucine at amino acid 149), sequence (P56856 other isoform, or with tags, fused parts or gaps limits assumed): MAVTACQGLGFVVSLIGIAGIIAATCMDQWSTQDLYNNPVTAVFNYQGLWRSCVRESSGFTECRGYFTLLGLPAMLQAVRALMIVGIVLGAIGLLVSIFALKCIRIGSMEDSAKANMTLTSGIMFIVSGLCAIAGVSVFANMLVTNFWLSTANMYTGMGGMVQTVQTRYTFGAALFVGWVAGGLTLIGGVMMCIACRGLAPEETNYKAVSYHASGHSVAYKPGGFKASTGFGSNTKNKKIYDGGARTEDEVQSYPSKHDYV

binding result (human CLDN18.1): no binding | binding result [1]: binds | TDCC, Titer EC50 (pM), NUGC4_D8 (human CLDN18.2 [2]): 186 pM | EC50 (human CLDN18.2 [3]): 13.9 nM
B3: PR005522 (bispecific antibody, human IgG1, lambda, L234A L235A)
chain: EVQLVESGGGLVQPGGSLRLSCAASGFTFSSYWMHWVRQVPGKGLVWVSRINSDGSRTIYADSVKGRFTISRDNAKNTLYLQMNSLRAEDTAVYYCARGEDHDILTGYPIRGQGTTVTVSSGGGGSGGGGSGGGGSEVQLVESGGGLVQPGGSLRLSCAASGFTFSSYWMHWVRQVPGKGLVWVSRINSDGSRTIYADSVKGRFTISRDNAKNTLYLQMNSLRAEDTAVYYCARGEDHDILTGYPIRGQGTTVTVSSASEPKSSDKTHTCPPCPAPEAAGGPSVFLFPPKPKDTLMISRTPEVTCVVVDVSHEDPEVKFNWYVDGVEVHNAKTKPREEQYNSTYRVVSVLTVLHQDWLNGKEYKCKVSNKALPAPIEKTISKAKGQPREPQVCTLPPSREEMTKNQVSLSCAVKGFYPSDIAVEWESNGQPENNYKTTPPVLDSDGSFFLVSKLTVDKSRWQQGNVFSCSVMHEALHNHYTQKSLSLSPGK
heavy: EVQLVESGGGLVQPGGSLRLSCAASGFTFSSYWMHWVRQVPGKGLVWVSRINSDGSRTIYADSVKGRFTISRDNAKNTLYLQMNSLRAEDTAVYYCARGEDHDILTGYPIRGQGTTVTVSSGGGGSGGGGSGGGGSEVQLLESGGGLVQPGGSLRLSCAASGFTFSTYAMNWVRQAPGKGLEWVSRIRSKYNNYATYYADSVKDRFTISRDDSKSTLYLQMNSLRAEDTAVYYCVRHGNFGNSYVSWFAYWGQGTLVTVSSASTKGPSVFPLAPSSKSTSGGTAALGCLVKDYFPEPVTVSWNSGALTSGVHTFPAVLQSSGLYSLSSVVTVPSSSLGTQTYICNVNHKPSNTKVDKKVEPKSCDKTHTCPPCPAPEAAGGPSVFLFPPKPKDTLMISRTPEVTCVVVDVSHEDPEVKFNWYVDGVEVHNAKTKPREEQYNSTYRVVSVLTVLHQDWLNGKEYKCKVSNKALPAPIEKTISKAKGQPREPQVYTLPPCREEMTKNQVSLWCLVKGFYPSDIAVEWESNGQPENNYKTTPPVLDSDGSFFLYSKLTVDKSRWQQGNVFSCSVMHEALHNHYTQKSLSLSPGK
light: QAVVTQEPSLTVSPGGTVTLTCRSSTGAVTTSNYANWVQQKPGQAPRGLIGGTNKRAPWTPARFSGSLLGDKAALTLLGAQPEDEAEYFCALWYSNLWVFGGGTKLTVLGQPKAAPSVTLFPPSSEELQANKATLVCLISDFYPGAVTVAWKADSSPVKAGVETTTPSKQSNNKYAASSYLSLTPEQWKSHRSYSCQVTHEGSTVEKTVAPTECS
notes: PR001848 / PR004533; LALA

binding result (human CLDN18.1): no binding | binding result [1]: binds | TDCC, Titer EC50 (pM), NUGC4_D8 (human CLDN18.2 [2]): 11 pM | EC50 (human CLDN18.2 [3]): 12.6 nM
B7: PR005354 (bispecific antibody, human IgG1, lambda, L234A L235A)
chain: B3 chain
heavy: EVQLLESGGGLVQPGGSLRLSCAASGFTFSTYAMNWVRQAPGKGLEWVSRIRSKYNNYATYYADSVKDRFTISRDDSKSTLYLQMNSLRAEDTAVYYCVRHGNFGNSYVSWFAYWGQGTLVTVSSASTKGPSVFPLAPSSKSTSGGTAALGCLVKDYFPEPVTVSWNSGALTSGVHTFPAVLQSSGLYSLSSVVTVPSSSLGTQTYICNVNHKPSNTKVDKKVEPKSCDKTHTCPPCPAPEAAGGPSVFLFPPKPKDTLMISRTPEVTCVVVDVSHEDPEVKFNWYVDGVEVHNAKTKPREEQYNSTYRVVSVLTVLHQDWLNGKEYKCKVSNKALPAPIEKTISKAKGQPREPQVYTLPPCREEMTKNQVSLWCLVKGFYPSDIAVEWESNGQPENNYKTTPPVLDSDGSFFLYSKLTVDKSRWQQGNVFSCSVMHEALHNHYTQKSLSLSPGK
light: B3 light
notes: structure 1; CD3 Fab from PR001848, CLDN18.2 VH from PR004533; LALA

Further lines, the binder ahead of its results:

B1: PR005518 (bispecific antibody)
chain 1: EVQLVESGGGLVQPGGSLRLSCAASGFTFSSYWMHWVRQVPGKGLVWVSRINSDGSRTIYADSVKGRFTISRDNAKNTLYLQMNSLRAEDTAVYYCARGEDHDILTGYPIRGQGTTVTVSSASEPKSSDKTHTCPPCPAPEAAGGPSVFLFPPKPKDTLMISRTPEVTCVVVDVSHEDPEVKFNWYVDGVEVHNAKTKPREEQYNSTYRVVSVLTVLHQDWLNGKEYKCKVSNKALPAPIEKTISKAKGQPREPQVCTLPPSREEMTKNQVSLSCAVKGFYPSDIAVEWESNGQPENNYKTTPPVLDSDGSFFLVSKLTVDKSRWQQGNVFSCSVMHEALHNHYTQKSLSLSPGK
chain 2: not shown
light: B3 light
notes: structure 2 (2+1 HCAb-Fc-Fab, CD3 VH-CH1 at the C-terminus of one HCAb chain); PR001848 / PR004533; LALA
binding result (human CLDN18.1): no binding | binding result [1]: binds | TDCC, Titer EC50 (pM), NUGC4_D8 (human CLDN18.2 [2]): 30.6 pM | EC50 (human CLDN18.2 [3]): 20.5 nM

B2: PR005519 (bispecific antibody)
chain 1: B1 chain 1
chain 2: not shown
chain 3: EVQLLESGGGLVQPGGSLRLSCAASGFTFSTYAMNWVRQAPGKGLEWVSRIRSKYNNYATYYADSVKDRFTISRDDSKSTLYLQMNSLRAEDTAVYYCVRHGNFGNSYVSWFAYWGQGTLVTVSSASTKGPSVFPLAPSSKSTSGGTAALGCLVKDYFPEPVTVSWNSGALTSGVHTFPAVLQSSGLYSLSSVVTVPSSSLGTQTYICNVNHKPSNTKVDKKVEPKSC
notes: structure 3 (2+1 HCAb-Fc-Fab, CD3 VL-CL at the C-terminus of one HCAb chain; third chain is CD3 VH-CH1); PR001848 / PR004533; LALA
binding result (human CLDN18.1): no binding | binding result [1]: binds | TDCC, Titer EC50 (pM), NUGC4_D8 (human CLDN18.2 [2]): 32.9 pM | TDCC, Titer EC50 (pM), SNU620 [4]: 70.5 pM | EC50 (human CLDN18.2 [3]): 13.9 nM

B4: PR005525 (bispecific antibody, human IgG1, lambda, L234A L235A)
chain: EVQLVESGGGLVQPGGSLRLSCAASGFTFSSYWMHWVRQVPGKGLVWVSRINSDGSRTIYADSVKGRFTISRDNAKNTLYLQMNSLRAEDTAVYYCARGEDHDILTGYPIRGQGTTVTVSSGGGGSGGGGSGGGGSEVQLVESGGGLVQPGGSLRLSCAASGFTFSSYWMHWVRQVPGKGLVWVSRINSDGSRTIYADSVKGRFTISRDNAKNTLYLQMNSLRAEDTAVYYCARGEDHDILTGYPIRGQGTTVTVSSGGGGSGGGGSGGGGSEVQLVESGGGLVQPGGSLRLSCAASGFTFSSYWMHWVRQVPGKGLVWVSRINSDGSRTIYADSVKGRFTISRDNAKNTLYLQMNSLRAEDTAVYYCARGEDHDILTGYPIRGQGTTVTVSSASEPKSSDKTHTCPPCPAPEAAGGPSVFLFPPKPKDTLMISRTPEVTCVVVDVSHEDPEVKFNWYVDGVEVHNAKTKPREEQYNSTYRVVSVLTVLHQDWLNGKEYKCKVSNKALPAPIEKTISKAKGQPREPQVCTLPPSREEMTKNQVSLSCAVKGFYPSDIAVEWESNGQPENNYKTTPPVLDSDGSFFLVSKLTVDKSRWQQGNVFSCSVMHEALHNHYTQKSLSLSPGK
heavy: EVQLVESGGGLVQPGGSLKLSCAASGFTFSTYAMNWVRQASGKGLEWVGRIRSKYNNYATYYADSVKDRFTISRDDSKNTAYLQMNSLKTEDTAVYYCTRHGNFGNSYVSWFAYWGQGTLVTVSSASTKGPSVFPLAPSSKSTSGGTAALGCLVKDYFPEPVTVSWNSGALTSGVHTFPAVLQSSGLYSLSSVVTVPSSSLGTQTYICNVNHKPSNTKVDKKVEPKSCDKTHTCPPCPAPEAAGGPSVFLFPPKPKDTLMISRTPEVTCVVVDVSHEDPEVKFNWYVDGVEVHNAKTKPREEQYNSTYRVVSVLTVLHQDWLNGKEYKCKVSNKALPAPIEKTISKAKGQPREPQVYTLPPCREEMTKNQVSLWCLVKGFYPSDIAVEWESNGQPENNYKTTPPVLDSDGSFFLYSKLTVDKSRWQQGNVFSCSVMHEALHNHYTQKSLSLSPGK
light: B3 light
notes: structure 7 (3+1 Fab-Fc-VH-VH-VH); PR003886 / PR004533; LALA
EC50 [5]: 26.8 nM | binding result (human CLDN18.1): no binding | TDCC, Titer EC50 (pM), NUGC4_D8 (human CLDN18.2 [2]): 28.9 pM | EC50 (human CLDN18.2 [3]): 12.6 nM

B5: PR007082 (bispecific antibody, human IgG1, lambda)
chain: B3 chain with S53H, G55S, S189H, G191S, G281A
heavy: EVQLVESGGGLVQPGGSLKLSCAASGFTFSTYAMNWVRQASGKGLEWVGRIRSKYNNYATYYADSVKDRFTISRDDSKNTAYLQMNSLKTEDTAVYYCTRHGNFGNSYVSWFAYWGQGTLVTVSSASTKGPSVFPLAPSSKSTSGGTAALGCLVKDYFPEPVTVSWNSGALTSGVHTFPAVLQSSGLYSLSSVVTVPSSSLGTQTYICNVNHKPSNTKVDKKVEPKSCDKTHTCPPCPAPEAAGAPSVFLFPPKPKDTLMISRTPEVTCVVVDVSHEDPEVKFNWYVDGVEVHNAKTKPREEQYNSTYRVVSVLTVLHQDWLNGKEYKCKVSNKALPAPIEKTISKAKGQPREPQVYTLPPCREEMTKNQVSLWCLVKGFYPSDIAVEWESNGQPENNYKTTPPVLDSDGSFFLYSKLTVDKSRWQQGNVFSCSVMHEALHNHYTQKSLSLSPGK
light: B3 light
notes: structure 1; CD3 Fab from PR003886, CLDN18.2 VH from PR007248; AAA
EC50 [5]: 41 nM | EC50 (human CLDN18.2 [3]): 44.2 nM

B6: PR005399 (bispecific antibody, human IgG1, lambda, L234A L235A)
chain: B3 chain with N52S, D54A, N188S, D190A
heavy: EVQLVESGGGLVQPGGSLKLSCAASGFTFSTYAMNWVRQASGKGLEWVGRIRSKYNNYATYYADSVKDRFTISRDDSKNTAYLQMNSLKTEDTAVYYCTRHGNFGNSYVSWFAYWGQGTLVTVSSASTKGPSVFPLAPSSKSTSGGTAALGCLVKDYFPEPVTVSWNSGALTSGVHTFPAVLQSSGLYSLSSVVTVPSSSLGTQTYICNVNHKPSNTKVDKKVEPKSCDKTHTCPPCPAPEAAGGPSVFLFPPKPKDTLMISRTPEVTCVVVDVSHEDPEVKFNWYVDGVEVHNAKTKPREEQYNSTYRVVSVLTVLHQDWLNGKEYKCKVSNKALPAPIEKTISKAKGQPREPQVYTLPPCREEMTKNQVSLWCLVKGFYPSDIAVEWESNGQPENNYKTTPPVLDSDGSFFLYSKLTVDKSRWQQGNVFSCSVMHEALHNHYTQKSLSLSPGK
light: B3 light
notes: structure 1; CD3 Fab from PR003886, CLDN18.2 VH from PR007243; LALA
EC50 [5]: 81.9 nM | TDCC, Titer EC50 (pM), NUGC4_D8 (human CLDN18.2 [2]): 14.8 pM | TDCC, Titer EC50 (pM), SNU620 [4]: 41.1 pM | EC50 (human CLDN18.2 [6]): 25.3 nM
